The text below walks through data of IntAct's records for PubMed 31515488.

B1: Mothers against decapentaplegic homolog 4 (Homo sapiens), Q13485 (parent)
chain: MDNMSITNTPTSNDACLSIVHSLMCHRQGGESETFAKRAIESLVKKLKEKKDELDSLITAITTNGAHPSKCVTIQRTLDGRLQVAGRKGFPHVIYARLWRWPDLHKNELKHVKYCQYAFDLKCDSVCVNPYHYERVVSPGIDLSGLTLQSNAPSSMMVKDEYVHDFEGQPSLSTEGHSIQTIQHPPSNRASTETYSTPALLAPSESNATSTANFPNIPVASTSQPASILGGSHSEGLLQIASGPQPGQQQNGFTGQPATYHHNSTTTWTGSRTAPYTPNLPHHQNGHLQHHPPMPPHPGHYWPVHNELAFQPPISNHPAPEYWCSIAYFEMDVQVGETFKVPSSCPIVTVDGYVDPSGGDRFCLGQLSNVHRTEAIERARLHIGKGVQLECKGEGDVWVRCLSDHAVFVQSYYLDREAGRAPGDAVHKIYPSAYIKVFDLRQCHRQMQQQAATAQAAAAAQAAAVAGNIPGPGSVGGIAPAISLSAAAGIGVDDLRRLCILRMSFVKGWGPDYPRQSIKETPCWIEIHLHRALQLLDEVLHTMPIADPQPLD
B2: Isoform 1 of Protein quaking (Homo sapiens), Q96PU8-1 (parent)
chain: MVGEMETKEKPKPTPDYLMQLMNDKKLMSSLPNFCGIFNHLERLLDEEISRVRKDMYNDTLNGSTEKRSAELPDAVGPIVQLQEKLYVPVKEYPDFNFVGRILGPRGLTAKQLEAETGCKIMVRGKGSMRDKKKEEQNRGKPNWEHLNEDLHVLITVEDAQNRAEIKLKRAVEEVKKLLVPAAEGEDSLKKMQLMELAILNGTYRDANIKSPALAFSLAATAQAAPRIITGPAPVLPPAALRTPTPAGPTIMPLIRQIQTAVMPNGTPHPTAAIVPPGPEAGLIYTPYEYPYTLAPATSILEYPIEPSGVLGAVATKVRRHDMRVHPYQRIVTADRAATGN
B3: Peroxisomal membrane protein 11C (Homo sapiens), Q96HA9 (parent)
chain: MASLSGLASALESYRGRDRLIRVLGYCCQLVGGVLVEQCPARSEVGTRLLVVSTQLSHCRTILRLFDDLAMFVYTKQYGLGAQEEDAFVRCVSVLGNLADQLYYPCEHVAWAADARVLHVDSSRWWTLSTTLWALSLLLGVARSLWMLLKLRQRLRSPTAPFTSPLPRGKRRAMEAQMQSEALSLLSNLADLANAVHWLPRGVLWAGRFPPWLVGLMGTISSILSMYQAARAGGQAEATTP
partner: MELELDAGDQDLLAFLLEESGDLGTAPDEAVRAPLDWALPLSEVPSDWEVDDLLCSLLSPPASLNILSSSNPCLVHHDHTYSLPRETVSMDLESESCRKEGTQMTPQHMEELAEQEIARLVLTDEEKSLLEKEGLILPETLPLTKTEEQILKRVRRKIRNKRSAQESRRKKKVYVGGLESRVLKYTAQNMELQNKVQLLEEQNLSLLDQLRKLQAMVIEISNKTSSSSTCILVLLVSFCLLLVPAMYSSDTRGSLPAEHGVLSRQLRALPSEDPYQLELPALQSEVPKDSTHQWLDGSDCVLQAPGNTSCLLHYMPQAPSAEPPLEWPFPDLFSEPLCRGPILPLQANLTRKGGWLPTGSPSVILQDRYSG
B4: Phospholipid scramblase 4 (Homo sapiens), Q9NRQ2 (parent)
chain: MSGVVPTAPEQPAGEMENQTKPPDPRPDAPPEYNSHFLPGPPGTAVPPPTGYPGGLPMGYYSPQQPSTFPLYQPVGGIHPVRYQPGKYPMPNQSVPITWMPGPTPMANCPPGLEYLVQLDNIHVLQHFEPLEMMTCFETNNRYDIKNNSDQMVYIVTEDTDDFTRNAYRTLRPFVLRVTDCMGREIMTMQRPFRCTCCCFCCPSARQELEVQCPPGVTIGFVAEHWNLCRAVYSIQNEKKENVMRVRGPCSTYGCGSDSVFEVKSLDGISNIGSIIRKWNGLLSAMADADHFDIHFPLDLDVKMKAMIFGACFLIDFMYFERSPPQRSR

The first assay covers variants of B1. Conditions: with smad9_human SMAD9, O15198.
smad9_human SMAD9, O15198, sequence (O15198 whole entry): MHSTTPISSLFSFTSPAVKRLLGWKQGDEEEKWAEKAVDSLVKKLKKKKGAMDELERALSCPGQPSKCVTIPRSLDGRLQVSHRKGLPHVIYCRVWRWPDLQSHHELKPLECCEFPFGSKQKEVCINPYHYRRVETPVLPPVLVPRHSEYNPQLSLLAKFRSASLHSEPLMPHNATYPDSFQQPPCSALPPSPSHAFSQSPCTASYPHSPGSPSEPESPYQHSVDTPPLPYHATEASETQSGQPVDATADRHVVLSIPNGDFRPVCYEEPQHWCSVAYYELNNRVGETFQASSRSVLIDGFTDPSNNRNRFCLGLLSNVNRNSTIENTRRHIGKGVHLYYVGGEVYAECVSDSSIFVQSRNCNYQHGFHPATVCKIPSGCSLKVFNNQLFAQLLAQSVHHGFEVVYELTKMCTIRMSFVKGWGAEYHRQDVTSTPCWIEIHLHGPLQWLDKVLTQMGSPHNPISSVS
As for R361C, the “effect of a mutation on the interaction” value was “disrupting interaction strength”.
As for G352R, the “effect of a mutation on the interaction” value is given as “disrupting interaction strength”.
On to E330K, for which the “effect of a mutation on the interaction” value is given as “disrupting interaction strength”.

The next assay covers variants of B1. Conditions: with smad3_human SMAD3, P84022.
smad3_human SMAD3, P84022, sequence (P84022 whole entry, looked up): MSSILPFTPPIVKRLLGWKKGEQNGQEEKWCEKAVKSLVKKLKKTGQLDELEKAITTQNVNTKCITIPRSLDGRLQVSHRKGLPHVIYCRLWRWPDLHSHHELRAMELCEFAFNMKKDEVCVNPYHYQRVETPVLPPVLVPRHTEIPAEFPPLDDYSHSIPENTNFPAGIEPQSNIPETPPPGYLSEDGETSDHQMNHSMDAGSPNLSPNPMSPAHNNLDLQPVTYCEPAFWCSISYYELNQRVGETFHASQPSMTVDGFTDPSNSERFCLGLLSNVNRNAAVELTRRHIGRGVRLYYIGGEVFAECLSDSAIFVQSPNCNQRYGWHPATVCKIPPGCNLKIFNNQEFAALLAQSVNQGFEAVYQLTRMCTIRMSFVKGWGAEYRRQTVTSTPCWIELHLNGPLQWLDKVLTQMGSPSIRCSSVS
Turning to R361C, the “effect of a mutation on the interaction” value is “disrupting interaction strength”.
Consider V539G, for which the “effect of a mutation on the interaction” value is given as “disrupting interaction strength”.
Regarding G352R, the “effect of a mutation on the interaction” value is “disrupting interaction strength”.
Take R531W: the “effect of a mutation on the interaction” value was “disrupting interaction strength”.
On the same count and under the same terms, then E330K, with “disrupting interaction strength”; and V407L, with “with no effect”.

Variants of B1 are the subject of another assay. The note with it: with ews_human EWSR1, Q01844.
ews_human EWSR1, Q01844, sequence (Q01844 whole entry): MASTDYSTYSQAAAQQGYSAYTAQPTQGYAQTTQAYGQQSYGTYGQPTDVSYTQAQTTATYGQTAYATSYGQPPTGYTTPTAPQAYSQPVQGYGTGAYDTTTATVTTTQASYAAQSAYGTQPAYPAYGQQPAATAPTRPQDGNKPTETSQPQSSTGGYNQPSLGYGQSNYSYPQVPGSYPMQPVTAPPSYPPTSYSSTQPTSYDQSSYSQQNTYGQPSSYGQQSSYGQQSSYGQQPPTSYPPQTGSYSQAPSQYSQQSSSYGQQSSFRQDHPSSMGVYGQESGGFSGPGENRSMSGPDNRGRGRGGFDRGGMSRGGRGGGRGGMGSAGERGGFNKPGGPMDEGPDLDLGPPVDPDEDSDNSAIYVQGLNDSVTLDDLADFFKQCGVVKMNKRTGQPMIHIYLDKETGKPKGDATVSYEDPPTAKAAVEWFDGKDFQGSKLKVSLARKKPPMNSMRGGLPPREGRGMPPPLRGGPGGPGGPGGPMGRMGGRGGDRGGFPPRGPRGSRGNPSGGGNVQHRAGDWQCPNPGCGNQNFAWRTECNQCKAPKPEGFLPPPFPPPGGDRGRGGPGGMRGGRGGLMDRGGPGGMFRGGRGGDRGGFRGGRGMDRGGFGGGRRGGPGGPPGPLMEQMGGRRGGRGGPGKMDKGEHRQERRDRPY
Consider V539G, for which the “effect of a mutation on the interaction” value is “disrupting interaction strength”.
Same read-out and setting: under R531W stands “with no effect”.

In the next assay the parent is B2. The note with it: with hnrpk_human HNRNPK.
As for R336Q, the “effect of a mutation on the interaction” value is on record as “with no effect”.

The variants in another assay derive from B2. Conditions: with fubp3_human FUBP3, Q96I24.
fubp3_human FUBP3, Q96I24, sequence (Q96I24 whole entry): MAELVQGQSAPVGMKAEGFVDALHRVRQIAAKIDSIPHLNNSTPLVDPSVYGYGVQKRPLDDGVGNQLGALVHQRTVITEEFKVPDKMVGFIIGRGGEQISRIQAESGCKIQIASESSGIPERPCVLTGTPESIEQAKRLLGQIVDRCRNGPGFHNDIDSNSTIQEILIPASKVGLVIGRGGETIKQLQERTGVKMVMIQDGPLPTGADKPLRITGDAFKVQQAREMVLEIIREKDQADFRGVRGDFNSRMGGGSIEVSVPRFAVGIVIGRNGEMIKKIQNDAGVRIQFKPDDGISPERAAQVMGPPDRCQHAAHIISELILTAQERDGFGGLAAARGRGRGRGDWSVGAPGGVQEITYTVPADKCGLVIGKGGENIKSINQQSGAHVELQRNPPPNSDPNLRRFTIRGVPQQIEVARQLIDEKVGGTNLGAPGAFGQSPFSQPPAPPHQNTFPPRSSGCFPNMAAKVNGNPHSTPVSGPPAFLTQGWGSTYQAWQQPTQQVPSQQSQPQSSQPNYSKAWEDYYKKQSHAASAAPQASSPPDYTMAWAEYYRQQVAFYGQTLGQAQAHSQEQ
For the variant R336Q, the “effect of a mutation on the interaction” value is “with no effect”.

Variants of B2 are the subject of a further assay. Conditions: with rbpms_human RBPMS.
For the variant R336Q, the “effect of a mutation on the interaction” value was “with no effect”.

Variants of B3 are the subject of another assay. The note with it: with creb3_human CREB3, O43889.
Regarding C91W, the “effect of a mutation on the interaction” value is listed as “with no effect”.

The variants in the next assay derive from B4. The note with it: with pls1_human PLSCR1, O15162.
pls1_human PLSCR1, O15162, sequence (O15162 whole entry): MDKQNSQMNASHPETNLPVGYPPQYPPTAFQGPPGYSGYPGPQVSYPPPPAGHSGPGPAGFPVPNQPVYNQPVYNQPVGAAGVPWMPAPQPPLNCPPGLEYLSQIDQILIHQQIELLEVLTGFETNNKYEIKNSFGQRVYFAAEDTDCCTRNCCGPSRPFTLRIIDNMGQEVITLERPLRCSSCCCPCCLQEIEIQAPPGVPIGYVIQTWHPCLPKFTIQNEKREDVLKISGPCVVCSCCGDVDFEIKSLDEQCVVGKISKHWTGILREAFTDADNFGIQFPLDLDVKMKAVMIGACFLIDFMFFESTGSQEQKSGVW
Take N34S: the “effect of a mutation on the interaction” value is recorded as “with no effect”.
For the variant I155V, the “effect of a mutation on the interaction” value is “with no effect”.
In the case of A107S, the “effect of a mutation on the interaction” value is on record as “with no effect”.

Variants of B4 are the subject of another assay. The note with it: with mtus2_human MTUS2, Q5JR59.
mtus2_human MTUS2, Q5JR59, sequence (Q5JR59 whole entry): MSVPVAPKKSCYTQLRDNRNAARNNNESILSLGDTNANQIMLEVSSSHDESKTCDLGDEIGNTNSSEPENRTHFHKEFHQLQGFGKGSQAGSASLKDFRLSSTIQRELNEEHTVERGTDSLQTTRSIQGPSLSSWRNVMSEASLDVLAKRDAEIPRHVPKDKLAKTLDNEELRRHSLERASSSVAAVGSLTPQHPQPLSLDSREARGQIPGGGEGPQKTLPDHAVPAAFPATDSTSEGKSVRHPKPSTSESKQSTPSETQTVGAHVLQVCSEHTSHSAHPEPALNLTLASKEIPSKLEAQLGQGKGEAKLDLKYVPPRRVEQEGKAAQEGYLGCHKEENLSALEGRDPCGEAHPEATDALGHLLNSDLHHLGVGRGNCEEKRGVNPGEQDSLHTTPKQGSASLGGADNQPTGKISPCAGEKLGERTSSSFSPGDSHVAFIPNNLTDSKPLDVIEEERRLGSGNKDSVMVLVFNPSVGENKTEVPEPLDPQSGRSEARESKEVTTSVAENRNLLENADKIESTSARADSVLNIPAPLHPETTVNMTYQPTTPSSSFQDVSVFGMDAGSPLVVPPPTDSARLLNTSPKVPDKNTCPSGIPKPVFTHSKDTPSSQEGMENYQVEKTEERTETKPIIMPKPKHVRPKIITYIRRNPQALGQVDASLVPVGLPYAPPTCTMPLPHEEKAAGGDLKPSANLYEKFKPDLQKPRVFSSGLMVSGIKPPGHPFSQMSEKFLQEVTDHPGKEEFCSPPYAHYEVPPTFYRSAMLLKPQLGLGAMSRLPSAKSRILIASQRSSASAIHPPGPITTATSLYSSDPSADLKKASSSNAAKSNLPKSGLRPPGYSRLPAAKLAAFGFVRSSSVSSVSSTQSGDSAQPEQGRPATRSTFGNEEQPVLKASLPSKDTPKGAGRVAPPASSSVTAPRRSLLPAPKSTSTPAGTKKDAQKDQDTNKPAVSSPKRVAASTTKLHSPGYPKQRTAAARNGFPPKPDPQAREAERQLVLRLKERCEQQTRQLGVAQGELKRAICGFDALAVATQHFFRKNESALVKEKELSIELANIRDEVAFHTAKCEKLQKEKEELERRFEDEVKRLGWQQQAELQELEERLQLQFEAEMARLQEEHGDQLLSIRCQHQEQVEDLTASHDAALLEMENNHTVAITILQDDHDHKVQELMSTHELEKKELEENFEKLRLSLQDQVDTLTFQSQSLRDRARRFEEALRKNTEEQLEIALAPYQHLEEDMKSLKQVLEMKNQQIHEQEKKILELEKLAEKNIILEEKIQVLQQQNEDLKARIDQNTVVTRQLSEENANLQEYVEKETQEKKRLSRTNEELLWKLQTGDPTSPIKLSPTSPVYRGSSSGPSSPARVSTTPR
Take N34S: the “effect of a mutation on the interaction” value is reported as “with no effect”.
For the variant I155V, the “effect of a mutation on the interaction” value is “with no effect”.
In the case of A107S, the “effect of a mutation on the interaction” value was “with no effect”.

In a further assay the parent is B4. The note with it: with nt2na_human NOTCH2NLA.
In the case of N34S, the “effect of a mutation on the interaction” value was “with no effect”.
As for I155V, the “effect of a mutation on the interaction” value is given as “with no effect”.
Consider A107S, for which the “effect of a mutation on the interaction” value was “with no effect”.
